According to the RNAGym collection of RNA variant scans (doi:10.1093/molbev/msab373):

B1: Azoarcus group I ribozyme (parent)
chain: GUGCCUUGCGCCGGGAAACCACGCAAGGGAUGGUGUCAAAUUCGGCGAAACCUAAGCGCCCGCCCGGGCGUAUGGCAACGCCGAGCCAAGCUUCGGCGCCUGCGCCGAUGAAGGUGUAGAGACUAGACGGCACCCACCUAAGGCAAACGCUAUGGUGAAGGCAUAGUCCAGGGAGUGGCGAAAGUCACACAAACCGG

Variants of: B1
Experiment: reverse-splicing fitness (ratio to wild type); higher = more active; in vitro selection; Mg2+ level not given
In short: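 An in vitro group I ribozyme library with randomized positions was T7-transcribed and gel-purified. In triplicate, 10 pmol RNA in EPPS pH 7.5 was reacted with 50 pmoles of a 30-nt RNA substrate for 1 h at 37 °C across several added MgCl2 levels (1–48 mM), then stopped with EDTA. Products were reverse transcribed from a substrate-complementary primer, PCR-amplified and sequenced (HiSeq 4000). Fitness is a variant's read proportion after selection over that before, normalised to wild type.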

Variant	reverse-splicing fitness
C82G A111C A120C A145G C150G C169A U176G	0.0086
C82G A111C A120C A145G C150G C169A U176C	0.0127
C82G A111C A120C A145G C150G C169A U176A	0.0142
C82G A111C A120C A145C C169U U176A	0.0165
C82G A111C A120C A145C C169U U176G	0.00508
C82G A111C A120C A145C C169U U176C	0.0151
C82A C150U C169U U176A	0.0141
C82A C150U C169U U176C	0.016
C82A C150U C169U U176G	0.00577
C82G A111C A120C A145G C150U C169U	0.0124
C82G A111C A120C A145G C150U C169A	0.0101
C82G A111C A120C A145G C150U C169G	0.00759
C82G A111C A120C A145G	0.053
C82G A111C A120C A145U	0.0547
C82G A111C A120C A145C	0.0447
C82A C169U U176C	0.0153
C82A C169U U176A	0.0166
C82A C169U U176G	0.00459
C82G A111C A120C A145G C169G U176G	0.00618
C82G A111C A120C A145G C169G U176A	0.0188
C82G A111C A120C A145G C169G U176C	0.0253

Variant	reverse-splicing fitness
C82G A111C A120C A145C C150U C169G U176C	0.0168
C82G A111C A120C A145C C150U C169G U176G	0.00745
C82G A111C A120C A145C C150U C169G U176A	0.0246
C82G A111C A120C A145C C150A C169U U176G	0.00799
C82G A111C A120C A145C C150A C169U U176C	0.0123
C82G A111C A120C A145C C150A C169U U176A	0.0176
C82G A111C A120C A145U C150A C169U	0.011
C82G A111C A120C A145U C150A C169G	0.0083
C82G A111C A120C A145U C150A C169A	0.00835
C82G A111C A120C A145C C150A	0.00907
C82G A111C A120C A145C C150G	0.0093
C82G A111C A120C A145C C150U	0.0168
C82A C150A C169A U176C	0.0177
C82A C150A C169A U176G	0.007
C82A C150A C169A U176A	0.0211
C82G A111C A120C A145G C150A C169U U176A	0.0157
C82G A111C A120C A145G C150A C169U U176G	0.00795
C82G A111C A120C A145G C150A C169U U176C	0.0139
C82A C150A C169U	0.00897
C82A C150A C169A	0.0109
C82A C150A C169G	0.00927

Variant	reverse-splicing fitness
C82G A111C A120C A145C C150G C169G	0.00653
C82G A111C A120C A145C C150G C169U	0.00944
C82G A111C A120C A145C C150G C169A	0.00859
C82G A111C A120C C150A U176A	0.0125
C82G A111C A120C C150A U176G	0.00842
C82G A111C A120C C150A U176C	0.0203
C82G A111C A120C A145G C150A U176G	0.00711
C82G A111C A120C A145G C150A U176A	0.0118
C82G A111C A120C A145G C150A U176C	0.0234
C82A C150G C169U U176G	0.00641
C82A C150G C169U U176C	0.0109
C82A C150G C169U U176A	0.00724
C82A C150G U176G	0.0062
C82A C150G U176C	0.0393
C82A C150G U176A	0.0245
C82A C150A U176G	0.021
C82A C150A U176C	0.0632
C82A C150A U176A	0.0524
C82G A111C A120C A145C C150G C169G U176G	0.00608
C82G A111C A120C A145C C150G C169G U176C	0.00983
C82G A111C A120C A145C C150G C169G U176A	0.00984

Variant	reverse-splicing fitness
C82G A111C A120C	0.0556
C82G A111C A120G	0.0185
C82A U176C	0.484
C82A U176G	0.12
C82A U176A	0.407
C82G A111C A120C A145G C150U C169A U176G	0.00796
C82G A111C A120C A145G C150U C169A U176C	0.0142
C82G A111C A120C A145G C150U C169A U176A	0.0153
C82G A111C A120C A145U C150G U176C	0.0099
C82G A111C A120C A145U C150G U176G	0.00383
C82G A111C A120C A145U C150G U176A	0.00549
C82G A111C A120C A145G C169A U176G	0.00796
C82G A111C A120C A145G C169A U176C	0.0254
C82G A111C A120C A145G C169A U176A	0.0223
C82G A111C A120C C150G C169A	0.00742
C82G A111C A120C C150G C169U	0.00996
C82G A111C A120C C150G C169G	0.00702
C82G A111C A120C A145C C150U C169A U176A	0.0125
C82G A111C A120C A145C C150U C169A U176C	0.00824
C82G A111C A120C A145C C150U C169A U176G	0.00692
C82G A111C A120C A145G C150G C169U U176C	0.0117
